IntAct's records for PubMed 31515488

B1: PDZ and LIM domain protein 1 (Homo sapiens), O00151 (parent)
chain: MTTQQIDLQGPGPWGFRLVGGKDFEQPLAISRVTPGSKAALANLCIGDVITAIDGENTSNMTHLEAQNRIKGCTDNLTLTVARSEHKVWSPLVTEEGKRHPYKMNLASEPQEVLHIGSAHNRSAMPFTASPASSTTARVITNQYNNPAGLYSSENISNFNNALESKTAASGVEANSRPLDHAQPPSSLVIDKESEVYKMLQEKQELNEPPKQSTSFLVLQEILESEEKGDPNKPSGFRSVKAPVTKVAASIGNAQKLPMCDKCGTGIVGVFVKLRDRHRHPECYVCTDCGTNLKQKGHFFVEDQIYCEKHARERVTPPEGYEVVTVFPK
B2: LIM/homeobox protein Lhx4 (Homo sapiens), Q969G2 (parent)
chain: MMQSATVPAEGAVKGLPEMLGVPMQQIPQCAGCNQHILDKFILKVLDRHWHSSCLKCADCQMQLADRCFSRAGSVYCKEDFFKRFGTKCTACQQGIPPTQVVRKAQDFVYHLHCFACIICNRQLATGDEFYLMEDGRLVCKEDYETAKQNDDSEAGAKRPRTTITAKQLETLKNAYKNSPKPARHVREQLSSETGLDMRVVQVWFQNRRAKEKRLKKDAGRHRWGQFYKSVKRSRGSSKQEKESSAEDCGVSDSELSFREDQILSELGHTNRIYGNVGDVTGGQLMNGSFSMDGTGQSYQDLRDGSPYGIPQSPSSISSLPSHAPLLNGLDYTVDSNLGIIAHAGQGVSQTLRAMAGGPTSDISTGSSVGYPDFPTSPGSWLDEMDHPPF
partner: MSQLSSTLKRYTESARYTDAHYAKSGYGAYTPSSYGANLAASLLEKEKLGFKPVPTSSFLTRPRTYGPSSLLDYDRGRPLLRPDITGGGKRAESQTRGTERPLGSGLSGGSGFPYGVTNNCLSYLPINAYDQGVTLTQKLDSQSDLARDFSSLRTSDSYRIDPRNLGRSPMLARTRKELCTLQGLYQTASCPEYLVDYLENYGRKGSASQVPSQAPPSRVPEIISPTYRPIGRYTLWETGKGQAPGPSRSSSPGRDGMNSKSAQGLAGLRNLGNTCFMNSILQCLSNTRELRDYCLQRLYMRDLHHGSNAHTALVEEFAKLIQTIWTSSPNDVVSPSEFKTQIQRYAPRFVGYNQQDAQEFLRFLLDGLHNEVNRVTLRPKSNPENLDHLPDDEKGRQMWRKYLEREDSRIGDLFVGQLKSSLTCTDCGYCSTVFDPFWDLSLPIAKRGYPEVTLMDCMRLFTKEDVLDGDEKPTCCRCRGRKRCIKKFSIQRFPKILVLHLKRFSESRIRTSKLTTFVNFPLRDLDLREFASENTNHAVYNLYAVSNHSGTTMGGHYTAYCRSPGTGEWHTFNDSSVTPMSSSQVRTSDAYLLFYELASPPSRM
B3: Leucine rich adaptor protein 1 (Homo sapiens), Q96LR2 (parent)
chain: MEGTVESQTPDLRDVEGKVGRKTPEGLLRGLRGECELGTSGALLLPGASSTGHDLGDKIMALKMELAYLRAIDVKILQQLVTLNEGIEAVRWLLEERGTLTSHCSSLTSSQYSLTGGSPGRSRRGSWDSLPDTSTTDRLDSVSIGSFLDTVAPSELDEQGPPGAPRSEMDWAKVIAGGERARTEVDVAATRLGSLRAVWKPPGERLQGGPPESPEDESAKLGFEAHWFWEQCQDDVTFL
partner: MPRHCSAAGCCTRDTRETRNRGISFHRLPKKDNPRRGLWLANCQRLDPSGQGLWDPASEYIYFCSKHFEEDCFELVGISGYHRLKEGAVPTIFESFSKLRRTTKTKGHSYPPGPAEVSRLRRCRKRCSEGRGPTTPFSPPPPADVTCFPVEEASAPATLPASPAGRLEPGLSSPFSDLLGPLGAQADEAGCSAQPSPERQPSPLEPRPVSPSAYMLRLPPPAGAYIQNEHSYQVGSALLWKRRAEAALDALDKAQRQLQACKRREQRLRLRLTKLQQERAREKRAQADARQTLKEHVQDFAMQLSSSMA
B4: Tuftelin-interacting protein 11 (Homo sapiens), Q9UBB9 (parent)
chain: MSLSHLYRDGEGRIDDDDDERENFEITDWDLQNEFNPNRQRHWQTKEEATYGVWAERDSDDERPSFGGKRARDYSAPVNFISAGLKKGAAEEAELEDSDDEEKPVKQDDFPKDFGPRKLKTGGNFKPSQKGFAGGTKSFMDFGSWERHTKGIGQKLLQKMGYVPGRGLGKNAQGIINPIEAKQRKGKGAVGAYGSERTTQSMQDFPVVDSEEEAEEEFQKELSQWRKDPSGSKKKPKYSYKTVEELKAKGRISKKLTAPQKELSQVKVIDMTGREQKVYYSYSQISHKHNVPDDGLPLQSQQLPQSGKEAKAPGFALPELEHNLQLLIDLTEQEIIQNDRQLQYERDMVVNLFHELEKMTEVLDHEERVISNLSKVLEMVEECERRMQPDCSNPLTLDECARIFETLQDKYYEEYRMSDRVDLAVAIVYPLMKEYFKEWDPLKDCTYGTEIISKWKSLLENDQLLSHGGQDLSADAFHRLIWEVWMPFVRNIVTQWQPRNCDPMVDFLDSWVHIIPVWILDNILDQLIFPKLQKEVENWNPLTDTVPIHSWIHPWLPLMQARLEPLYSPIRSKLSSALQKWHPSDSSAKLILQPWKDVFTPGSWEAFMVKNIVPKLGMCLGELVINPHQQHMDAFYWVIDWEGMISVSSLVGLLEKHFFPKWLQVLCSWLSNSPNYEEITKWYLGWKSMFSDQVLAHPSVKDKFNEALDIMNRAVSSNVGAYMQPGARENIAYLTHTERRKDFQYEAMQERREAENMAQRGIGVAASSVPMNFKDLIETKAEEHNIVFMPVIGKRHEGKQLYTFGRIVIYIDRGVVFVQGEKTWVPTSLQSLIDMAK
partner: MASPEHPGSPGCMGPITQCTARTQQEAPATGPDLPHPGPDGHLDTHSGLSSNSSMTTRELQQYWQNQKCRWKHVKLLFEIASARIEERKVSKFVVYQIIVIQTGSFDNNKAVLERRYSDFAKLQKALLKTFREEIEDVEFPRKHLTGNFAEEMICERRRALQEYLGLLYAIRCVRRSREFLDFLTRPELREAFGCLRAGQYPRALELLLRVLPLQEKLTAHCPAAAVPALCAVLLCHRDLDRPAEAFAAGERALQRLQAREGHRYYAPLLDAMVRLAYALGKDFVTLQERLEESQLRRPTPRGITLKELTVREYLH
B5: Coiled-coil domain-containing protein 74A (Homo sapiens), Q96AQ1 (parent)
chain: MSGAGVAAGTRPPSSPTPGSRRRRQRPSVGVQSLRPQSPQLRQSDPQKRNLDLEKSLQFLQQQHSEMLAKLHEEIEHLKRENKDLHYKLIMNQTSQKKDGPSGNHLSRASAPLGARWVCINGVWVEPGGPSPARLKEGSSRTHRPGGKRGRLAGGSADTVRSPADSLSMSSFQSVKSISNSGKARPQPGSFNKQDSKADVSQKADLEEEPLLHNSKLDKVPGVQGQARKEKAEASNAGAACMGNSQHQGRQMGAGAHPPMILPLPLRKPTTLRQCEVLIRELWNTNLLQTQELRHLKSLLEGSQRPQAAPEEASFPRDQEATHFPKVSTKSLSKKCLSPPVAERAILPALKQTPKNNFAERQKRLQAMQKRRLHRSVL
B6: Methylmalonyl-CoA epimerase, mitochondrial (Homo sapiens), Q96PE7 (parent)
chain: MARVLKAAAANAVGLFSRLQAPIPTVRASSTSQPLDQVTGSVWNLGRLNHVAIAVPDLEKAAAFYKNILGAQVSEAVPLPEHGVSVVFVNLGNTKMELLHPLGRDSPIAGFLQKNKAGGMHHICIEVDNINAAVMDLKKKKIRSLSEEVKIGAHGKPVIFLHPKDCGGVLVELEQA
B7: Lebercilin-like protein (Homo sapiens), O95447 (parent)
chain: MSLADLTKTNIDEHFFGVALENNRRSAACKRSPGTGDFSRNSNASNKSVDYSRSQCSCGSLSSQYDYSEDFLCDCSEKAINRNYLKQPVVKEKEKKKYNVSKISQSKGQKEISVEKKHTWNASLFNSQIHMIAQRRDAMAHRILSARLHKIKGLKNELADMHHKLEAILTENQFLKQLQLRHLKAIGKYENSQNNLPQIMAKHQNEVKNLRQLLRKSQEKERTLSRKLRETDSQLLKTKDILQALQKLSEDKNLAEREELTHKLSIITTKMDANDKKIQSLEKQLRLNCRAFSRQLAIETRKTLAAQTATKTLQVEVKHLQQKLKEKDRELEIKNIYSHRILKNLHDTEDYPKVSSTKSVQADRKILPFTSMRHQGTQKSDVPPLTTKGKKATGNIDHKEKSTEINHEIPHCVNKLPKQEDSKRKYEDLSGEEKHLEVQILLENTGRQKDKKEDQEKKNIFVKEEQELPPKIIEVIHPERESNQEDVLVREKFKRSMQRNGVDDTLGKGTAPYTKGPLRQRRHYSFTEATENLHHGLPASGGPANAGNMRYSHSTGKHLSNREEMELEHSDSGYEPSFGKSSRIKVKDTTFRDKKSSLMEELFGSGYVLKTDQSSPGVAKGSEEPLQSKESHPLPPSQASTSHAFGDSKVTVVNSIKPSSPTEGKRKIII
B8: Splicing factor 45 (Homo sapiens), Q96I25 (parent)
chain: MSLYDDLGVETSDSKTEGWSKNFKLLQSQLQVKKAALTQAKSQRTKQSTVLAPVIDLKRGGSSDDRQIVDTPPHVAAGLKDPVPSGFSAGEVLIPLADEYDPMFPNDYEKVVKRQREERQRQRELERQKEIEEREKRRKDRHEASGFARRPDPDSDEDEDYERERRKRSMGGAAIAPPTSLVEKDKELPRDFPYEEDSRPRSQSSKAAIPPPVYEEQDRPRSPTGPSNSFLANMGGTVAHKIMQKYGFREGQGLGKHEQGLSTALSVEKTSKRGGKIIVGDATEKDASKKSDSNPLTEILKCPTKVVLLRNMVGAGEVDEDLEVETKEECEKYGKVGKCVIFEIPGAPDDEAVRIFLEFERVESAIKAVVDLNGRYFGGRVVKACFYNLDKFRVLDLAEQV
partner: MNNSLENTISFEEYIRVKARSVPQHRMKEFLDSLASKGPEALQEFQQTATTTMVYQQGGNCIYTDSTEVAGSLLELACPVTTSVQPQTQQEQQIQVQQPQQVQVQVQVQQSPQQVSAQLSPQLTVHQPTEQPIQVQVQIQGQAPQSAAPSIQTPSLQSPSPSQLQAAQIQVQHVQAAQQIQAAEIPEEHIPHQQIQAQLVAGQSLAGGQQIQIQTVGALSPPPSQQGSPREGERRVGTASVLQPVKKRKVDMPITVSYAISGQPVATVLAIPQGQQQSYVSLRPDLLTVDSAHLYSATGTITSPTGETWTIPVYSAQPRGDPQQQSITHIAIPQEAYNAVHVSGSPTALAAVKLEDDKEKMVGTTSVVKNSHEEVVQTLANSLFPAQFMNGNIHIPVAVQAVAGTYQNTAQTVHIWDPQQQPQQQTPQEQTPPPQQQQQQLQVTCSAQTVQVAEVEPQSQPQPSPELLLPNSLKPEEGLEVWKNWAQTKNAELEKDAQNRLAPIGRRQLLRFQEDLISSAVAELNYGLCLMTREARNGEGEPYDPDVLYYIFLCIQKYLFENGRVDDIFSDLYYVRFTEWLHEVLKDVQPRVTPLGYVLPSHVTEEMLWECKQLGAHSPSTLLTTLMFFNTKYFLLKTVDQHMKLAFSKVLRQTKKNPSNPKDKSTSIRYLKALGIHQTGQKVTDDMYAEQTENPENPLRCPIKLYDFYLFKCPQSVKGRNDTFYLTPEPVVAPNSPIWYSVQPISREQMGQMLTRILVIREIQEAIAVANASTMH
B9: Bcl-2-interacting killer (Homo sapiens), Q13323 (parent)
chain: MSEVRPLSRDILMETLLYEQLLEPPTMEVLGMTDSEEDLDPMEDFDSLECMEGSDALALRLACIGDEMDVSLRAPRLAQLSEVAMHSLGLAFIYDQTEDIRDVLRSFMDGFTTLKENIMRFWRSPNPGSWVSCEQVLLALLLLLALLLPLLSGGLHLLLK
partner: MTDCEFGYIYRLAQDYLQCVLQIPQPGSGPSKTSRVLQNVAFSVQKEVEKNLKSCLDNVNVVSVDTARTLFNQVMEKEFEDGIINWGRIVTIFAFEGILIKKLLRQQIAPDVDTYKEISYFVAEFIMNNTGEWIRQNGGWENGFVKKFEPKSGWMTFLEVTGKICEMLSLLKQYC

Variants of: B1
Settings: with gfap_human GFAP
In the case of N175S, the “effect of a mutation on the interaction” value is reported as “with no effect”.

Variants of: B2
Settings: with ubp2_human USP2, O75604
N328S was tested, and the “effect of a mutation on the interaction” value was “with no effect”.

Variants of: B3
Settings: with thap7_human THAP7, Q9BT49
In the case of Q207R, the “effect of a mutation on the interaction” value is reported as “disrupting interaction strength”.
With M60L the “effect of a mutation on the interaction” value was “with no effect”.

Variants of: B4
Settings: with snx20_human SNX20, Q7Z614
R8Q was tested, and the “effect of a mutation on the interaction” value was “with no effect”.
With S688L the “effect of a mutation on the interaction” value was “with no effect”.

Variants of: B5
Settings: with mtus2_human MTUS2, Q5JR59
Sequence of mtus2_human MTUS2, Q5JR59 (Q5JR59 whole entry): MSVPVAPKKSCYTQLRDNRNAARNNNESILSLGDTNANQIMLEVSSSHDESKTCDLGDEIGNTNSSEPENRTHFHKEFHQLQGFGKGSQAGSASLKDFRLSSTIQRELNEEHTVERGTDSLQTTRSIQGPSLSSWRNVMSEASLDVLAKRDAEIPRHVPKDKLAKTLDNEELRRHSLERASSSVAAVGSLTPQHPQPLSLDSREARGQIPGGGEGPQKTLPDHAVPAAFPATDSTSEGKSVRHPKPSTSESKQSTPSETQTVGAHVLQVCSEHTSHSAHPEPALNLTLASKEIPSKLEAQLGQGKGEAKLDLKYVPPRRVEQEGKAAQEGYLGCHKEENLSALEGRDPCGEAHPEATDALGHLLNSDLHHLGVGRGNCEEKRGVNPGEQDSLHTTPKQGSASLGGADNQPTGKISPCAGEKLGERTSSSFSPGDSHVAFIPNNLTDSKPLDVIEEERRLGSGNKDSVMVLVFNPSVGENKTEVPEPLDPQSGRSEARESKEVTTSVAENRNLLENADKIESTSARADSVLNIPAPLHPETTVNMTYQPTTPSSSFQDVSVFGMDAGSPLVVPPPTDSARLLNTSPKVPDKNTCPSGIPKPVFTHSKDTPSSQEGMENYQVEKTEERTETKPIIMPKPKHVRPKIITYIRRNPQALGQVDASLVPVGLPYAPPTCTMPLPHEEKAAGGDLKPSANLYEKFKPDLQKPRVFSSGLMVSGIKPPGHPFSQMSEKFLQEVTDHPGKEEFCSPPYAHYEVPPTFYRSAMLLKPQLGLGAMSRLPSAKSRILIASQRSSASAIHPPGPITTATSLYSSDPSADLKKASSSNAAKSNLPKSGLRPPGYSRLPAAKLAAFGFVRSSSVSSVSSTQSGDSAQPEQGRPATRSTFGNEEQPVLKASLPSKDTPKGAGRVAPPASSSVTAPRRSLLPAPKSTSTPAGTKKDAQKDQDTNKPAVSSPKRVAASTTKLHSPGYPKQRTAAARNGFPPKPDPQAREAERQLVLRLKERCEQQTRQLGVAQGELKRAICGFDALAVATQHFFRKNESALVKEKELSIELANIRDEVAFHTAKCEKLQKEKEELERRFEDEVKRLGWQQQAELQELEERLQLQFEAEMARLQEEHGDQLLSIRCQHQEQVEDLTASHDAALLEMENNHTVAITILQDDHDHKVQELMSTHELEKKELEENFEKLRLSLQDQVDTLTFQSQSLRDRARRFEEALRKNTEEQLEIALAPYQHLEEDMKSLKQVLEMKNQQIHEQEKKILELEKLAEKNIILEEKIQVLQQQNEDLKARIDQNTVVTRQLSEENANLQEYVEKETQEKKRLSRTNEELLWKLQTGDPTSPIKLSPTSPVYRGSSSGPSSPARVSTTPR
In the case of G302R, the “effect of a mutation on the interaction” value is reported as “with no effect”.

Variants of: B6
Settings: with atrap_human AGTRAP
For R143H, the “effect of a mutation on the interaction” value was “with no effect”.
In the case of A76V, the “effect of a mutation on the interaction” value is reported as “with no effect”.

Variants of: B7
Settings: with tfp11_human TFIP11, Q9UBB9
G17S was tested, and the “effect of a mutation on the interaction” value was “with no effect”.

Variants of: B7
Settings: with tpm3_human TPM3, P06753
Sequence of tpm3_human TPM3, P06753 (P06753 whole entry): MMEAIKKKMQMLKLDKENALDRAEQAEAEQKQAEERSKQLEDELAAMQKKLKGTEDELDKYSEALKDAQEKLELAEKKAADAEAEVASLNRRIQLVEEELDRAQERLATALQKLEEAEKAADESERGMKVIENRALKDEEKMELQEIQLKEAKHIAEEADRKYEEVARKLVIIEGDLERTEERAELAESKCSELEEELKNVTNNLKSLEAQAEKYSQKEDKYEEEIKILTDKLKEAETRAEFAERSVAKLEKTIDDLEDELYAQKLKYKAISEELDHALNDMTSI
G17S was tested, and the “effect of a mutation on the interaction” value was “with no effect”.

Variants of: B8
Settings: with qric1_human QRICH1, Q2TAL8
With T224I the “effect of a mutation on the interaction” value was “with no effect”.

Variants of: B9
Settings: with BCL2A1, Q16548
In the case of D69E, the “effect of a mutation on the interaction” value is reported as “with no effect”.
